Here are results for one molecule from PMC8944281 (Proceedings of the National Academy of Sciences of the …, 2022).

This assay has as its target T1, His8-tagged GSAP-16K 734 to 758 (UniProt A4D1B5 734-758).
T1 chain (looked up): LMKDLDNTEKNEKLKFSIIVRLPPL
Briefly: SEC.

As to SIHHGVVEV (domain or fragment, UniProt P05067 730-738, looked up) [GST-APP 730 to 738], the binding result is reported as “binds”.
